Source: patent publication US20240016931A1 (JIANGSU HENGRUI PHARMACEUTICALS, published 2024)
Positions count from the first letter of the chain named. Names may count otherwise.

Biological target: T1, His-tagged human TSLP antigen (huTSLP-his) (human)
T1 construct: Secreted from HEK293E and purified on nickel; whole entry named; also called Human TSLP-his
Assay: ELISA, coated huTSLP-his;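 further: binding of antibodies to plate-bound TSLP read as absorbance at 450 nm after TMB colour development, EC50 derived from binding curves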
Method: The plate was incubated at 4° C. overnight. After the liquid was discarded, 5% skim milk (skim milk powder from Brightdairy) blocking solution diluted with PBS was added at 200 μL/well, and the plate was incubated in an incubator at 37° C. for 2 h for blocking. After the blocking, the blocking solution was discarded, and the plate was washed 3 times with a PBST buffer (PBS containing 0.1% (v/v) tween-20, pH 7.4). […] After the incubation, the plate was washed 3 times with PBST. […] After the plate was washed 6 times with PBST, a TMB chromogenic substrate (KPL, 52-00-03) was added at 50 μL/well, and the plate was incubated at room temperature for 10-15 min. Then, 1 M H₂SO₄ was added at 50 μL/well to stop the reaction. The absorbance at 450 nm was read with a NOVOStar microplate reader, and the EC₅₀ values for the binding of the TSLP antibodies to TSLP were calculated.

B1: Ch119 (antibody, human IgG1, kappa, V domains shown)
VH: QAYLQQSGAELVRPGASVKMSCKASGFAFTTYNMHWVKHTPGQGLEWIGAIYPGNGETSYNQKFKDRATLTVDKSSRTAYMQLSSLTSEDSAVYFCAREDDYGEGYFDVWGAGTTVTVSS
VL: DIVLTQSPASLAVSLGQRATISCRASESVDNSGLSFMHWYQQKPGQPPRLLLYRASNLGSGIPARFSGSGSGTDFTLTLNPVETDDVATYYCQQINTDPLTFGAGTKLELKR
notes: murine variable regions on human IgG1-YTE / kappa; also called chimeric antibody corresponding to mab119
In the case of B1, the EC50 is reported as 851 pM.

B2: hu179-06 (antibody, human IgG1, kappa, V domains shown)
VH: EVQLVQSGAEVKKPGSSVKVSCKASGYTFSNYLIEWVRQAPGQGLEWIGVIDPGNGDTNYNENFKGRATLTADKSTSTAYIELSSLRSEDTAVYYCAREDNTGTAFDYWGQGTTVTVSS
VL: DIVMTQSPDSLAVSLGERATINCKASQSVSSDVTWYQQKPGQSPKLLIYYVSNHYTGVPDRFSGSGSGTDFTLTISSLQAEDVAVYYCQQHHRFPLTFGQGTKLEIKR
notes: IgG1-YTE, kappa
B2 gave an EC50 of 219 pM.

B3: hu179-07 (antibody, human IgG1, kappa, V domains shown)
VH: B2 VH
VL: B2 VL with L73F
notes: IgG1-YTE, kappa
B3 gave an EC50 of 448 pM.

B4: hu179-03 (antibody, human IgG1, kappa, V domains shown)
VH: B2 VH with I48M, A68V, I81M
VL: B2 VL with S43P
notes: IgG1-YTE, kappa
In the case of B4, the EC50 is reported as 138 pM.

B5: hu179-05 (antibody, human IgG1, kappa, V domains shown)
VH: B2 VH
VL: B2 VL with S43P
notes: IgG1-YTE, kappa
B5 showed an EC50 of 142 pM.

B6: hu179-04 (antibody, human IgG1, kappa, V domains shown)
VH: B2 VH with I48M, A68V, I81M
VL: B2 VL
notes: IgG1-YTE, kappa
Binder B6 has an EC50 of 189 pM.

B7: hu179-01 (antibody, human IgG1, kappa, V domains shown)
VH: B2 VH with Y27G, I48M, A68V, L70I, I81M
VL: B2 VL with S43P
notes: IgG1-YTE, kappa
In the case of B7, the EC50 is reported as 125 pM.

B8: hu179-02 (antibody, human IgG1, kappa, V domains shown)
VH: B2 VH with Y27G, I48M, A68V, L70I, I81M
VL: B2 VL
notes: IgG1-YTE, kappa
With B8 the EC50 was 170 pM.

B9: hu179-13 (antibody, human IgG1, kappa, V domains shown)
VH: B2 VH with R38K, R67K, S85R
VL: B2 VL
notes: IgG1-YTE, kappa
Work on B9 yielded an EC50 of 201 pM.

B10: hu179-12 (antibody, human IgG1, kappa, V domains shown)
VH: B2 VH with R38K, R67K, S85R
VL: B2 VL with S43P
notes: IgG1-YTE, kappa
For B10, the EC50 was 144 pM.

B11: hu119-22 (antibody, human IgG1, kappa)
heavy: EAQLVQSGAEVKKPGSSVKVSCKASGFTFSTYNMHWVRQAPGQGLEWIGAIYPGNGETSYNQKFKDRATLTVDKSTRTAYMELSSLRSEDTAVYYCAREDDYGEGYFDVWGQGTTVTVSSASTKGPSVFPLAPSSKSTSGGTAALGCLVKDYFPEPVTVSWNSGALTSGVHTFPAVLQSSGLYSLSSVVTVPSSSLGTQTYICNVNHKPSNTKVDKKVEPKSCDKTHTCPPCPAPELLGGPSVFLFPPKPKDTLYITREPEVTCVVVDVSHEDPEVKFNWYVDGVEVHNAKTKPREEQYNSTYRVVSVLTVLHQDWLNGKEYKCKVSNKALPAPIEKTISKAKGQPREPQVYTLPPSRDELTKNQVSLTCLVKGFYPSDIAVEWESNGQPENNYKTTPPVLDSDGSFFLYSKLTVDKSRWQQGNVFSCSVMHEALHNHYTQKSLSLSPGK
light: EIVLTQSPATLSLSPGERATLSCRASESVDNSGLSFMHWYQQKPGQPPRLLLYRASNLGSGIPARFSGSGSGTDFTLTISSLEPEDFAVYYCQQINTDPLTFGQGTKLEIKRTVAAPSVFIFPPSDEQLKSGTASVVCLLNNFYPREAKVQWKVDNALQSGNSQESVTEQDSKDSTYSLSSTLTLSKADYEKHKVYACEVTHQGLSSPVTKSFNRGEC
notes: IgG1-YTE, kappa
B11 gave an EC50 of 351 pM.

B12: hu119-02 (antibody, human IgG1, kappa)
heavy: B11 heavy with A2V, I48M, A68V, R77S
light: DIVMTQSPDSLAVSLGERATINCRASESVDNSGLSFMHWYQQKPGQPPKLLIYRASNLGSGVPDRFSGSGSGTDFTLTISSLQAEDVAVYYCQQINTDPLTFGQGTKLEIKRTVAAPSVFIFPPSDEQLKSGTASVVCLLNNFYPREAKVQWKVDNALQSGNSQESVTEQDSKDSTYSLSSTLTLSKADYEKHKVYACEVTHQGLSSPVTKSFNRGEC
notes: IgG1-YTE, kappa
B12 showed an EC50 of 194 pM.

B13: hu119-28 (antibody, human IgG1, kappa, V domains shown)
VH: EVQLVQSGAEVKKPGSSVKVSCKASGFTFSTYNMHWVKHAPGQGLEWIGAIYPGNGETSYNQKFKDRATLTVDKSTSTAYMELSSLRSEDTAVYYCAREDDYGEGYFDVWGQGTTVTVSS
VL: DIVLTQSPDSLAVSLGERATINCRASESVDSSGLSFMHWYQQKPGQPPKLLIYRASNLGSGVPDRFSGSGSGTDFTLTISSLQAEDVAVYYCQQINTDPLTFGQGTKLEIKR
notes: IgG1-YTE, kappa; also called hu119VH3 + hu119VL2-N31S
With B13 the EC50 was 265 pM.

B14: hu119-12 (antibody, IgG1, V domains shown)
VH: B13 VH
VL: B13 VL with L4M, S31N, I52L, V62I
notes: IgG1-YTE, kappa
For B14, the EC50 was 203 pM.

B15: hu119-25 (antibody, human IgG1, kappa)
heavy: B11 heavy with R77S
light: B11 light with E1D
notes: IgG1-YTE, kappa
B15 showed an EC50 of 358 pM.

B16: hu119-05 (antibody, human IgG1, kappa)
heavy: B11 heavy with A2V, F27G, I48M, A68V, L70I, V72A, R77S
light: B12 light with M4L
notes: IgG1-YTE, kappa
B16 was tested, and the EC50 was 144 pM.

B17: hu119-24 (antibody, human IgG1, kappa)
heavy: B11 heavy with A2V, F27G, R77S
light: B11 light with E1D
notes: IgG1-YTE, kappa
For B17, the EC50 was 345 pM.

B18: hu119-04 (antibody, IgG1)
heavy: B11 heavy with A2V, R38K, Q39H, R77S
light: B12 light
notes: IgG1-YTE, kappa
B18 was tested, and the EC50 was 188 pM.

B19: hu119-23 (antibody, human IgG1, kappa, V domains shown)
VH: B13 VH
VL: DIVLTQSPATLSLSPGERATLSCRASESVDNSGLSFMHWYQQKPGQPPRLLLYRASNLGSGIPARFSGSGSGTDFTLTISSLEPEDFAVYYCQQINTDPLTFGQGTKLEIKR
notes: IgG1-YTE, kappa
B19 was tested, and the EC50 was 340 pM.

B20: hu119-09 (antibody, human IgG1, kappa, V domains shown)
VH: B13 VH with F27G, K38R, H39Q, I48M, A68V, L70I, V72A
VL: B13 VL with L4M, S31N, I52L, V62I
notes: IgG1-YTE, kappa
B20 was tested, and the EC50 was 149 pM.

B21: hu119-29 (antibody, human IgG1, kappa, V domains shown)
VH: B13 VH
VL: B13 VL with S31Q
notes: IgG1-YTE, kappa; also called hu119VH3 + hu119VL2-N31Q
B21 gave an EC50 of 273 pM.

B22: hu119-08 (antibody, human IgG1, kappa)
heavy: B11 heavy with A2V, R38K, Q39H, R77S
light: B12 light with M4L
notes: IgG1-YTE, kappa
B22 gave an EC50 of 202 pM.

B23: hu119-27 (antibody, human IgG1, kappa)
heavy: B11 heavy
light: B11 light with E1D
notes: IgG1-YTE, kappa
B23 gave an EC50 of 335 pM.

B24: hu119-10 (antibody, human IgG1, kappa, V domains shown)
VH: B13 VH with K38R, H39Q, I48M, A68V
VL: B13 VL with L4M, S31N, I52L, V62I
notes: IgG1-YTE, kappa
B24 was tested, and the EC50 was 233 pM.

B25: hu119-26 (antibody, human IgG1, kappa)
heavy: B11 heavy with A2V, F27G
light: B11 light with E1D
notes: IgG1-YTE, kappa
With B25 the EC50 was 378 pM.

B26: hu119-01 (antibody, human IgG1, kappa)
heavy: B11 heavy with A2V, F27G, I48M, A68V, L70I, V72A, R77S
light: B12 light
notes: IgG1-YTE, kappa
B26 showed an EC50 of 107 pM.

B27: hu119-06 (antibody, human IgG1, kappa)
heavy: B11 heavy with A2V, I48M, A68V, R77S
light: B12 light with M4L
notes: IgG1-YTE, kappa
For B27, the EC50 was 221 pM.

B28: Ch3 (antibody, human IgG1, kappa, V domains shown)
VH: EVQLQQSGPVLVKPGASVKMSCKASGYTFTDDYMNWVKQSHGKSLEWIGIISPYNGGTSYNQKFKGKATLTVDKSSSTAYMELNSLTSEDSAVYYCAREDYDYDGYAMDHWGQGTSVTVSS
VL: QIVLSQSPAILSASPGEKVTMTCRASSSVSYMHWYQQKPGSSPKPWIYATSNLASGVPARFSGSGSGTSYSLTISRVEAEDAATYYCQQWSSNRTFGGGTKLEIKR
notes: murine variable regions on human IgG1-YTE / kappa; also called chimeric antibody corresponding to mab3
B28 was tested, and the EC50 was 493 pM.

B29: Ch179 (antibody, human IgG1, kappa, V domains shown)
VH: QVQLQQSGAELVRPGTSVKVSCKASGYAFTNYLIEWVKQRPGQGLEWIGVIDPGNGDTNYNENFKGKATLTADKSSSTAYIELSRLTSEDSAVYFCAREDNTGTAFDYWGQGTTLTVSS
VL: SIVMTQTPKFLLVSAGDRVTISCKASQSVSSDVTWYQQKPGQSPKLLIYYVSNHYTGVPDRFTGSGYGTDFTFTISSVQAEDLAVYFCQQHHRFPLTFGAGTKLELKR
notes: murine variable regions on human IgG1-YTE / kappa; also called chimeric antibody corresponding to mab179
In the case of B29, the EC50 is reported as 202 pM.
